We go through three molecules from paper PMC8160579 (The Journal of Cell Biology, 2021).

Where no end group is shown, it is not given here. Where only a bound is given, the exact number is not on record here.

The term Kd denotes a measure of binding affinity in units of concentration.

The chains are these.
B1: biotinylated SAMM50 LIR peptide (residues 18–41) (peptide)
peptide: DFGGLGEEAEFVEVEPEAKQEILE
modifications: also: biotinylated, position not given here
B2: Myc-SAMM50 WT, in vitro translated (natural protein)
chain: MGTVHARSLEPLPSSGPDFGGLGEEAEFVEVEPEAKQEILENKDVVVQHVHFDGLGRTKDDIIICEIGDVFKAKNLIEVMRKSHEAREKLLRLGIFRQVDVLIDTCQGDDALPNGLDVTFEVTELRRLTGSYNTMVGNNEGSMVLGLKLPNLLGRAEKVTFQFSYGTKETSYGLSFFKPRPGNFERNFSVNLYKVTGQFPWSSLRETDRGMSAEYSFPIWKTSHTVKWEGVWRELGCLSRTASFAVRKESGHSLKSSLSHAMVIDSRNSSILPRRGALLKVNQELAGYTGGDVSFIKEDFELQLNKQLIFDSVFSASFWGGMLVPIGDKPSSIADRFYLGGPTSIRGFSMHSIGPQSEGDYLGGEAYWAGGLHLYTPLPFRPGQGGFGELFRTHFFLNAGNLCNLNYGEGPKAHIRKLAECIRWSYGAGIVLRLGNIARLELNYCVPMGVQTGDRICDGVQFGAGIRFL
B3: GABARAP Q59E (natural protein)
chain: MKFVYKEEHPFEKRRSEGEKIRKKYPDRVPVIVEKAPKARIGDLDKKKYLVPSDLTVGEFYFLIRKRIHLRAEDALFFFVNNVIPPTSATMGQLYQEHHEEDFFLYIAYSDESVYGL

The target of assay [1] is GABARAPL1, purified (human, UniProt Q9H0R8 1-117). The assay is described as follows: BLI. In general terms: BLI is a label-free optical method that tracks binding on a fibre tip over time.
Assay [2] concerns the target GABARAP, purified (human, UniProt O95166 1-117). The assay is described as follows: BLI.
Assay [3] addresses LC3A, purified (human, UniProt Q9H492 1-121). The assay is described as follows: BLI.
For assay [4], the target named is LC3C, purified (human, UniProt Q9BXW4 1-126). The assay is described as follows: BLI.
Assay [5] addresses GST-GABARAP Y49A (human, UniProt O95166 1-117, Y49A). Nature of the assay: pull-down.
Assay [6] deals with B1. Nature of the assay: BLI.

Sequence of LC3C, purified (Q9BXW4 1-126): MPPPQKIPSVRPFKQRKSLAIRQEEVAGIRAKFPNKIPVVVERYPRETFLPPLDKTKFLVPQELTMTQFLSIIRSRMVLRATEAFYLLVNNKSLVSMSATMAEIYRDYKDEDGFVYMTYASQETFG
Sequence of GABARAP, purified (O95166 whole entry): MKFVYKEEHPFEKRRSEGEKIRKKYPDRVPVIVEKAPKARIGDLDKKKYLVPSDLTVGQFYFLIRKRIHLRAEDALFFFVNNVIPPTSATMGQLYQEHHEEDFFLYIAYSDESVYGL
Sequence of GABARAPL1, purified (Q9H0R8 whole entry): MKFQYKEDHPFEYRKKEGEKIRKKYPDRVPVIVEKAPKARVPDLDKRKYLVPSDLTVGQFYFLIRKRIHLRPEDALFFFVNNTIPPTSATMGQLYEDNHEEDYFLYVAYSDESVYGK

For B1, the equilibrium dissociation constant (Kd) in assay [1] stood at 10 µM; in assay [2], 23.9 µM; in assay [3], 27.6 µM; in assay [4], 57.2 µM.
Regarding B2, the “reduction in binding relative to WT GABARAP” value in assay [5] is greater than 60%.
For B3, the “fold reduction of binding relative to WT GABARAP” value in assay [6] was greater than 3.5 fold.
